Several values for one entry are separate records, joined by “and”; a condition that tells them apart may be missing. Equal values may be shown once.
B1: BM3 WT: wild-type bacterial cytochrome P450 BM3 (CYP102A1), Seq ID No. 16 (protein, listed as Bacillus megaterium)
chain: TIKEMPQPKTFGELKNLPLLNTDKPVQALMKIADELGEIFKFEAPGRVTRYLSSQRLIKEACDESRFDKNLSQALKFVRDFAGDGLFTSWTHEKNWKKAHNILLPSFSQQAMKGYHAMMVDIAVQLVQKWERLNADEHIEVPEDMTRLTLDTIGLCGFNYRFNSFYRDQPHPFITSMVRALDEAMNKLQRANPDDPAYDENKRQFQEDIKVMNDLVDKIIADRKASGEQSDDLLTHMLNGKDPETGEPLDDENIRYQIITFLIAGHETTSGLLSFALYFLVKNPHVLQKAAEEAARVLVDPVPSYKQVKQLKYVGMVLNEALRLWPTAPAFSLYAKEDTVLGGEYPLEKGDELMVLIPQLHRDKTIWGDDVEEFRPERFENPSAIPQHAFKPFGNGQRACIGQQFALHEATLVLGMMLKHFDFEDHTNYELDIKETLTLKPEGFVVKAKSKKIPLGGIPSPSTEQSAKKVRKKAENAHNTPLLVLYGSNMGTAEGTARDLADIAMSKGFAPQVATLDSHAGNLPREGAVLIVTASYNGHPPDNAKQFVDWLDQASADEVKGVRYSVFGCGDKNWATTYQKVPAFIDETLAAKGAENIADRGEADASDDFEGTYEEWREHMWSDVAAYFNLDIENSEDNKSTLSLQFVDSAADMPLAKMHGAFSTNVVASKELQQPGSARSTRHLEIELPKEASYQEGDHLGVIPRNYEGIVNRVTARFGLDASQQIRLEAEEEKLAHLPLAKTVSVEELLQYVELQDPVTRTQLRAMAAKTVCPPHKVELEALLEKQAYKEQVLAKRLTMLELLEKYPACEMKFSEFIALLPSIRPRYYSISSSPRVDEKQASITVSVVSGEAWSGYGEYKGIASNYLAELQEGDTITCFISTPQSEFTLPKDPETPLIMVGPGTGVAPFRGFVQARKQLKEQGQSLGEAHLYFGCRSPHEDYLYQEELENAQSEGIITLHTAFSRMPNQPKTYVQHVMEQDGKKLIELLDQGAHFYICGDGSQMAPAVEATLMKSYADVHQVSEADARLWLQQLEEKGRYAKDVWAG

Key:
[1] = target: triple CYP102A1 mutant of R47L/F87V/L188Q (Priestia megaterium, UniProt P14779, F88V/L189Q/R48L); conditions: cited from earlier work
Chain of triple CYP102A1 mutant of R47L/F87V/L188Q (P14779 2-1049 R48L/F88V/L189Q): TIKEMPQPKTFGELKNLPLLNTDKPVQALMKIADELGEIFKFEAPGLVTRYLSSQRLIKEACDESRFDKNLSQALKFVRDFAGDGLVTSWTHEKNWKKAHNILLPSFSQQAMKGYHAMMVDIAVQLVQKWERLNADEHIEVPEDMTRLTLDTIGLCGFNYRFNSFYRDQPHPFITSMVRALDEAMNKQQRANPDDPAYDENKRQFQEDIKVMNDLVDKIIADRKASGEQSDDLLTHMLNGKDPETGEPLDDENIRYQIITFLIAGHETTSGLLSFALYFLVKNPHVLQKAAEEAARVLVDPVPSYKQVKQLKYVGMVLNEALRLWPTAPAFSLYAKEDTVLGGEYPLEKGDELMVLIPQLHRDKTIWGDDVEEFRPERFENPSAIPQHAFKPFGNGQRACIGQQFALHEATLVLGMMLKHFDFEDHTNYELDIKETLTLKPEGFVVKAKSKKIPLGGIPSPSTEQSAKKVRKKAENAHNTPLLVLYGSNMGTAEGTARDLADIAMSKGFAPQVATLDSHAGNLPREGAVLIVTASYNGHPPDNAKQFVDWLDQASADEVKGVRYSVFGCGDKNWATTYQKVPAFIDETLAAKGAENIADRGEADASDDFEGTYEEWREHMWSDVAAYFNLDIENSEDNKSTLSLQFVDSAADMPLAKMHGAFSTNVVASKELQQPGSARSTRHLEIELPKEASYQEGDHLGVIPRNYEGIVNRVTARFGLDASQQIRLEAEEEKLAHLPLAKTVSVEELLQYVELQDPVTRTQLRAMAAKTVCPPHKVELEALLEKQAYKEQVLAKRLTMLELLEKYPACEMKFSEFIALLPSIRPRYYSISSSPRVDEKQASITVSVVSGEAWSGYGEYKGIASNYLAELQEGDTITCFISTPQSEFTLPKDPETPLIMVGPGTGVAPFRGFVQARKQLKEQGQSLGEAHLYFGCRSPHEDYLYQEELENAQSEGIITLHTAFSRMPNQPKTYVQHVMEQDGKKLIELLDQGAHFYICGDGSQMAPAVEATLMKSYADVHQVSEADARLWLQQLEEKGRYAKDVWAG

CYP102A1 mutant #16 = target: T1, CYP102A1 mutant #16 (Priestia megaterium, UniProt P14779, E144G/E268V/F82I/F88V/L189Q/R48L); type: biochemical, Bacillus megaterium; conditions: 50 μM αNF
T1 construct: made in house; host or cells: Escherichia coli DH5αF′-IQ (soluble cytosolic fraction)
T1 sequence (P14779 2-1049 R48L/F82I/F88V/E144G/L189Q/E268V): as the sequence (P14779 2-1049 R48L/F88V/L189Q) above, with F81I, E143G, E267V counted along it
Method: (§1) Reaction mixtures consists of 50 pmol P450, 100 mM potassium phosphate buffer (pH 7.4), a NADPH-generating system, and a substrate (100 μM of simvastatin or lovastatin) in the presence of αNF (2 to 50 μM).
(§2) Products were analyzed by HPLC, as described above. In the case of human CYP3A4 activity assay, a control experiment of 50 pmol P450, 100 pmol NADPH-P450 reductase (CPR), 100 pmol cytocrhome b5, and 45 μM DLPC was used instead of 50 pmol CYP102A1.

CYP102A1 mutant #17 = target: T2, CYP102A1 mutant #17 (Priestia megaterium, UniProt P14779, E144G/E268V/E65G/F82I/F88V/L189Q/R48L); type: biochemical, Bacillus megaterium; conditions: 50 μM αNF
T2 construct: made in house; host or cells: Escherichia coli DH5αF′-IQ (soluble cytosolic fraction)
T2 sequence (P14779 2-1049 R48L/E65G/F82I/F88V/E144G/L189Q/E268V): as the sequence (P14779 2-1049 R48L/F88V/L189Q) above, with E64G, F81I, E143G, E267V counted along it
Method: as §1, §2

[2] = Kinetic parameters of 6′β-hydroxylation of simvastatin; type: biochemical; conditions: 2 to 200 μM statin
Method: (§3) The 6′β-hydroxylation rates of simvastatin (A) and lovastatin (B) were measured in reaction mixtures consistingof 50 pmol CYP102A1 in 0.25 ml of 100 mM potassium phosphate buffer (pH 7.4) along with a specified amount of substrate (2 to 200 μM of statins)
(§4) It was examined whether CYP102A1 and mutants thereof can oxidize simvastatin and lovastatin. Typical steady-state reactions for the oxidation of simvastatin and lovastatin included 50 pmol CYP102A1 in 0.25 ml of 100 mM potassium phosphate buffer (pH 7.4) along with a specified amount of substrate. To determine the kinetic parameters of several CYP102A1 mutants, 2 to 200 μM of statins were used. An aliquot of a NADPH-generating system was used to initiate reactions (final concentrations: 10 mM glucose 6-phosphate, 0.5 mM NADP+, and 1 IU yeast […]). A stock solution of statins (20 mM) was prepared in DMSO and diluted into the enzyme reactions with a final organic solvent concentration of <1% (v/v).
(§5) The kinetic parameters (Km and kcat) were determined using nonlinear regression analysis with GraphPad PRISM software (GraphPad, San Diego, Calif.). […]

[3] = Oxidation of simvastatin by CYP102A1 wild type/mutants and human CYP3A4, product formation rate (turnover number); type: biochemical; conditions: 100 μM simvastatin; mean±SD of triplicate; N.D. = less than 0.001
Method: as §4
(§6) In the case of human CYP3A4 activity assay, a control experiment of 50 pmol P450, 100 pmol NADPH-P450 reductase (CPR), 100 pmol cytocrhome b5, and 45 μM L-α-dilauroyl-sn-glycero-3-phosphocholine (DLPC) was used instead of 50 pmol CYP102A1. After the solution was incubated for 30 minutes at 37° C., the reaction was terminated with 2-fold of ice-cold dichloromethane.
(§7) After centrifugation of the reaction mixture, the supernatant was carefully removed and the solvent was evaporated under N2 gas as described in Vickers et al., 1990. The products were analyzed by HPLC using a Gemini C18 column (4.6 mm×150 mm, 5 μm, Phenomenex, Torrance, Calif.) with a mobile phase of acetonitrile/water (70/30, v/v) containing 2.5 mM formic acid. Eluates were detected by UV at 238 nm.
(§8) First, the ability of wild-type and a set of P450 BM3 mutants to oxidize simvastatin and lovastatin was measured at a fixed substrate concentration (100 μM). While simvastatin and lovastatin are known to produce at least four and three metabolites, respectively, CYP102A1 mutants produced only two metabolites, one major (6β-OH statin) and one minor (6′-exomethylene statin) metabolites. The metabolites were analyzed by HPLC and compared to those of human CYP3A4 (FIGS. 1 and 2). Since there is no need to comprise a separate step of the 6′β-OH statin and 6′-exomethylene statin from other products, the use of wild-type and mutant CYP102A1 is beneficial.
(§9) Assays were performed using 100 μM simvastatin or lovastatin. Values are the mean±SD of triplicate determinations.

[4] = Kinetic parameters of 6′β-hydroxylation of lovastatin; type: biochemical; conditions: 2 to 200 μM statin
Method: as §3, §4, §5

[5] = Total turnover numbers of 6′β-OH product formation, simvastatin; type: biochemical; conditions: total 1.0 mM statin, 37° C., 4 hours
Method: (§10) In order to measure the total turnover numbers (TTNs; mol product/mol catalyst) of mutant CYP102A1, total 1.0 mM statin was used. The reaction was initiated by the addition of the NADPH-generating system in the presence of 500 μM substrate and incubated at 37° C. for 4 hours. After 2 hours of incubation, the 500 μM substrate was added to the reaction mixture. The formation rate of simvastatin metabolites was determined by HPLC chromatograms.

[6] = Oxidation of lovastatin by CYP102A1 wild type/mutants and human CYP3A4, product formation rate (turnover number); type: biochemical; conditions: 100 μM lovastatin; mean±SD of triplicate; N.D. = less than 0.001
Method: as §4, §6, §7, §8, §9

[7] = Total turnover numbers of 6′β-OH product formation, lovastatin; type: biochemical; conditions: total 1.0 mM statin, 37° C., 4 hours
Method: as §10, with “The formation rate of simvastatin metabolites was determined by HPLC chromatograms.” left out

Molecule	Effect on metabolism of acetaminophen and 3,4-methylenedioxymethylamphetamine [1]	Inhibition of 6′β-hydroxylation activity of lovastatin (CYP102A1 mutant #16; 100 μM lovastatin) [%]	Inhibition of 6′β-hydroxylation activity of simvastatin (CYP102A1 mutant #16; 100 μM simvastatin) [%]	Inhibition of 6′β-hydroxylation activity of lovastatin (CYP102A1 mutant #17; 100 μM lovastatin) [%]	Inhibition of 6′β-hydroxylation activity of simvastatin (CYP102A1 mutant #17; 100 μM simvastatin) [%]	Km [2] [µM]	kcat, 6′β-hydroxylation of simvastatin [2]	Simvastatin 6β′-OH product formation rate [3]	Simvastatin 6′-Exomethylene product formation rate [3]	Km [4] [µM]	kcat, 6′β-hydroxylation of lovastatin [4]	Total turnover number of 6′β-OH product formation, simvastatin [5] [nmol product/nmol P450]	Lovastatin 6β′-OH product formation rate [6]	Lovastatin 6′-Exomethylene product formation rate [6]	Total turnover number of 6′β-OH product formation, lovastatin [7] [nmol product/nmol P450]	Total turnover number of 6′β-OH product formation, simvastatin ([5]; listed as wild-type CYP102A1) [nmol product/nmol P450]	Total turnover number of 6′β-OH product formation, lovastatin ([7]; listed as wild-type CYP102A1) [nmol product/nmol P450]
O=c1cc(-c2ccccc2)oc2c1ccc1ccccc12 [αNF, 7,8-benzoflavone]	did not have a significant effect	48	44	76	77	–	–	–	–	–	–	–	–	–	–	–	–
Human CYP3A4: human cytochrome P450 3A4, reconstituted with NADPH-P450 reductase, cytochrome b5 and DLPC	–	–	–	–	–	130	0.11 s⁻¹ and 0.11 ± 0.015 s⁻¹	3.0 ± 0.1 nmol product/min/nmol P450	0.22 ± 0.01 nmol product/min/nmol P450	54 ± 15	0.07 s⁻¹ and 0.07 ± 0.0083 s⁻¹	35 ± 5	6.5 ± 0.3 nmol product/min/nmol P450	0.43 ± 0.01 nmol product/min/nmol P450	44 ± 6	–	–
B1	–	–	–	–	–	–	–	0.0049 ± 0.0017 nmol product/min/nmol P450	N.D. (not detectable(the rate of product formation was less than 0.001 nmol product/min/nmol P450))	–	–	0.77 ± 0.04	N.D. (not detectable(the rate of product formation was less than 0.001 nmol product/min/nmol P450))	N.D. (not detectable(the rate of product formation was less than 0.001 nmol product/min/nmol P450))	1.9 ± 0.6	0.77	1.9

Source: patent US9145571B2, “Preparation method of human metabolites of simvastatin or lovastatin using bacterial cytochrome P450 and composition therefor” (priority 2009, dated 2015)
